Data as given in patent US5968526A, “T cell epitopes of the major allergens from Dermatophagoides (house dust mite)” (Immulogic Pharamaceutical Corporation, priority 1995, dated 1999).

B1: biochemically purified Der f II: purified native group II allergen of Dermatophagoides farinae (protein)
chain: DQVDVKDCANNEIKKVMVDGCHGSDPCIIHRGKPFTLEALFDANQNTKTAKTEIKASLDGLEIDVPGIDTNACHFMKCPLVKGQQYDAKYTWNVPKIAPKSENVVVTVKLVGDNGVLACAIATHAKIRD
B2: Der p II: affinity purified native group II allergen of Dermatophagoides pteronyssinus (protein)
chain: MMYKILCLSLLVAAVARDQVDVKDCANHEIKKVLVPGCHGSEPCIIHRGKPFQLEAVFEANQNTKTAKIEIKASIDGLEVDVPGIDPNACHYMKCPLVKGQQYDIKYTWNVPKIAPKSENVVVTVKVMGDDGVLACAIATHAKIRD
B3: Der p I: affinity purified native group I allergen of Dermatophagoides pteronyssinus (protein)
chain: KNRFLMSAEAFEHLKTQFDLNAETNACSINGNAPAEIDLRQMRTVTPIRMQGGCGSCWAFSGVAATESAYLAHRNQSLDLAEQELVDCASQHGCHGDTIPRGIEYIQHNGVVQESYYRYVAREQSCRRPNAQRFGISNYCQIYPPNANKIREALAQTHSAIAVIIGIKDLDAFRHYDGRTIIQRDNGYQPNYHAVNIVGYSNAQGVDYWIVRNSWDTNWGDNGYGYFAANIDLMMIEEYPYVVIL
B4: biochemically purified Der f-- I: purified native group I allergen of Dermatophagoides farinae (protein)
chain: MKFVLAIASLLVLSTVYARPASIKTFEEFKKAFNKNYATVEEEEVARKNFLESLKYVEANKGAINHLSDLSLDEFKNRYLMSAEAFEQLKTQFDLNAETSACRINSVNVPSELDLRSLRTVTPIRMQGGCGSCWAFSGVAATESAYLAYRNTSLDLSEQELVDCASQHGCHGDTIPRGIEYIQQNGVVEERSYPYVAREQRCRRPNSQHYGISNYCQIYPPDVKQIREALTQTHTAIAVIIGIKDLRAFQHYDGRTIIQHDNGYQPNYHAVNIVGYGSTQGDDYWIVRNSWDTTWGDSGYGYFQAGNNLMMIEQYPYVVIM

What was measured:
human IgE = experiment: direct binding ELISA of IgE to mite allergen proteins and peptides; conditions: for IgE binding (ELISA): pooled human plasma, 20 patients, FIGS. 19-21; for IgE binding (ELISA), modified peptides: plasma of 19 mite-allergic patients and pool of 18, Example XV
Description: The coating antigens were removed and the wells are blocked with 0.5% gelatin in PBS, 300 μl/well for 2 hours at room temperature. Pooled human plasma (a mix of plasma samples from 20 patients that were skin test positive for commerical mite extract) was serially diluted with PBS-Tween 20 (PBS with 0.05% nonionic detergent Tween-20 Sigma, St. Louis, Mo.) and 100 μl/well a.backslash.was added and incubated overnight at 4° C. (plasma dilutions were tested in duplicate). The second antibody (biotinylated goat anti-Human IgE, 1:1000, Kirkegaard & Perry Laboratories Inc, Gaithersburg, Md.), was added at 100 μl/well for one hour at room temperature. This solution was removed and streptavidin-HRPO, 1:10000, (Southern Biotechnology Associates, Inc., Birmingham, Ala.) was then added at 100 μl/well for one hour at room temperature (all wells are washed three times with PBS-Tween between each incubation step). TMB Membrane Peroxidase Substrate system (Kirkegaard & Perry Laboratories) was freshly miced, and added at […]. The color was allowed to develop for 2-5 minutes. The reaction was stopped by the addition of […] of 1M phosphoric acid. Plates were read on a Microplate IL310 Autoreader (Biotech Instruments, Winooski, Vt.) with a 450 nm filter. The absorbance levels of duplicate wells were averaged. The order of coating antigens listed vertically in these figure legends corresponds in orDer from left to right to the coating antigens listed for each histogram.
The antigen preparation that was used as a positive control was a mixture of the four major biochemically purified mite allergens (term PMA for Purified Mite Allergen); Der f I, Der f II, Der p I and Der p II. The stock was generated at a concentration of 100 μgs of each protein per millimeter or 400 μgs total protein/ml. This preparation was used on each coated ELISA plate.

[1] = system: PBMC from mite-allergic patient; experiment: primary T cell (PBMC) proliferation, mite-allergic patient, tritiated thymidine; assay type: cell-based, human; conditions: for CPM ± S.D.: medium 1071 ± 30
Description: Peripheral blood mononuclear cells (PBMC) were purified by Ficoll-Hypaque centrifugation of a peripheral blood specimen from mite-allergic patient and were assayed for proliferation in response to various antigens, i.e., affinity-purified Der p I, affinity purified Der p II, various Der p I and Der p II peptides. For assay, 5×10^4 PBMC were cultured in triplicate microwells for 7 days at 37° C. in the presence of various concentrations of antigen in 200 μl RPMI-1640 containing 5% human AB serum. Each well then received 1 μCi tritiated thymidine for 16 hours. The counts incorporated were collected onto glass fiber filters and processed for liquid scintillation counting. […] The CPM +/- standard deviation are shown. The stimulation index of each response (S.I.) is the ratio of the ^3 H-thymidine CPM incorporated by the cells in response to antigen divided by the ^3 H-thymidine CPM incorporated by cells in medium only. […] Thus, these peptides contain Der p I or Der p II T cell epitopes recognized by T cells from this particular allergic patient.

Molecule | IgE binding (ELISA) (human IgE) | S.I. ([1]; 10 μg/ml) | CPM ± S.D. ([1]; 10 μg/ml) | S.I. ([1]; 30 μg/ml) | CPM ± S.D. ([1]; 30 μg/ml) | S.I. ([1]; 100 μg/ml) | CPM ± S.D. ([1]; 100 μg/ml) | IgE binding (ELISA), modified peptides (human IgE)
B1 | binding |  |  |  |  |  |  | 
B2 | good binding | 1.0 | 1113 ± 35 CPM | 2.0 | 2104 ± 43 CPM | 1.0 | 1057 ± 27 CPM | All samples did contain IgE
B3 |  | 0.9 | 920 ± 15 CPM | 2.0 | 2122 ± 93 CPM | 1.4 | 1492 ± 13 CPM | All samples did contain IgE
B4 | binding |  |  |  |  |  |  | 
